This assay concerns the target C1q (UniProt P02745 23-245; P02746 28-253; P02747 29-245). As to the kind of experiment: ELISA. (In general: An ELISA detects its analyte on a solid surface through an enzyme-linked reagent.)

EC50 data for 3 molecules are collected here from patent US20250011433A1 (published 2025).

Positions count from the first letter of the chain named.

C1q, sequence (P02745 23-245, chain 1 of 3): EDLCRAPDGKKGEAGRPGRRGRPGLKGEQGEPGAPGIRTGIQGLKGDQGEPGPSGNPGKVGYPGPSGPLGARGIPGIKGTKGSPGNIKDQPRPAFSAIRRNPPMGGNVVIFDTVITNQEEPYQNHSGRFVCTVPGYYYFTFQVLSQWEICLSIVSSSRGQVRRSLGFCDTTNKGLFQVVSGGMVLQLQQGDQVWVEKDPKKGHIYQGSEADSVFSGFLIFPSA
C1q, sequence (P02746 28-253, chain 2 of 3): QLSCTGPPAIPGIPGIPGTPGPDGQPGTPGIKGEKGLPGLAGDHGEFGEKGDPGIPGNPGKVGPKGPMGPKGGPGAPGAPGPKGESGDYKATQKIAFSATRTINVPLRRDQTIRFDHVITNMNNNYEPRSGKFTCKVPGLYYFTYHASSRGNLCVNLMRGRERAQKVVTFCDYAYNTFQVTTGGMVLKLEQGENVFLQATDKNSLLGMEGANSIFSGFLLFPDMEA
C1q, sequence (P02747 29-245, chain 3 of 3): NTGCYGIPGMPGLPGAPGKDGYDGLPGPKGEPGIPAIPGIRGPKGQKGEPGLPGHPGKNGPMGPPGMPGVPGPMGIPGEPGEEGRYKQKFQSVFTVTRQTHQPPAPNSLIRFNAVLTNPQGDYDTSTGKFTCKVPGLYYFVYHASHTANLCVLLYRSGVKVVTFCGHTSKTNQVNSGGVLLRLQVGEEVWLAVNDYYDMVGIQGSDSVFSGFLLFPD

B1: G998 (Fc fusion)
chain: EPKSCDKTHTCPPCPAPELLGGPSVFLFPPKPKDTLMISRTPEVTCVVVDVEFEDPEVKFNWYVDGVEVHNAKTKPREEQYASTYRVVSVLTVLHQDWLNGKEYKCKVTNKALPAPIEKTISKAKGQPREPQVYTLPPSRDELTKNQVSLTCLVKGFYPSDIAVEWESNGQPENNYKTTPPVLDSDGSFFLYSKLTVDKSRWQQGNVFSCSVMHEALHNHYTQKSLSLSPGKERKCCVECPPCP
One may read the EC50 as the concentration that produces a half-maximal response. High values mean lower potency in that assay, low ones higher potency in that assay. Regarding B1, the response was half-maximal at 0.334 µg/mL (EC50).

B2: G997 (Fc fusion)
chain: B1 chain with A82N
In turn, B2 had an EC50 of 0.0166 µg/mL.

B3: G996 (Fc fusion)
chain: B1 chain with G21R, A82N
B3: the EC50 came to 0.278 µg/mL.
